Experimental data from article PMC10516418 (2023).

Columns and labels:
Assay in all cases: BLI
[1] = molecular target: v3B_Δ9
[2] = molecular target: v3B_Δ15
[3] = molecular target: v3B_Δ18

B1: MPE8 antigen-binding fragment (Fab) (Fab, V domains shown)
VH: EVQLVESGGGLVKPGGSLRLSCAASGFTFSSYSMNWVRQAPGKGLEWVSSISASSSYSDYADSAKGRFTISRDNAKTSLFLQMNSLRAEDTAIYFCARARATGYSSITPYFDIWGQGTLVTVSS
VL: QSVVTQTPSVSGAPGQRVTISCTGSSSNIGAGYDVHWYQQLPGTAPKLLIYDNNNRPSGVPDRFSASKSGTSASLAITGLQAEDEADYYCQSYDRNLSGVFGTGTKVTVL
- Kd [1]: 87 nM
- Kd [2]: 62 nM
- Kd [3]: 690 nM
